The numbers were not newly measured in paper PMC6959264, which cites them from elsewhere.

Data set [1] concerns the target Asp212 (UniProt position 225, LFMVLDVSAKV).
In data set [2] the target is Asp85 (UniProt position 98, WARYADWLFTT).
Data set [3] deals with Asp96 (UniProt position 109, PLLLLDLALLV).
Data set [4] addresses Asp74 (UniProt position 74, WARYIDWVITT). The conditions noted are these: original (unphotolyzed, dark) state implied.

With “Bacteriorhodopsin (BR) (Halobacterium salinarum)”, the pKa (commonly the negative logarithm of the acid dissociation constant) in data set [1] was less than 2.5; in data set [2] it was 2.6; in data set [3], more than 12.0.
Take “Rubrobacter xylanophilus rhodopsin (RxR) (Rubrobacter xylanophilus (DSM 9941))”: the pKa in data set [4] was 1.3.
